Test results from publication PMC3036992.

Molecular target: T1, RB69 DNA polymerase (RB69 pol) (Bacteriophage RB69, UniProt Q38087 1-903, D222A;D327A)
T1 sequence: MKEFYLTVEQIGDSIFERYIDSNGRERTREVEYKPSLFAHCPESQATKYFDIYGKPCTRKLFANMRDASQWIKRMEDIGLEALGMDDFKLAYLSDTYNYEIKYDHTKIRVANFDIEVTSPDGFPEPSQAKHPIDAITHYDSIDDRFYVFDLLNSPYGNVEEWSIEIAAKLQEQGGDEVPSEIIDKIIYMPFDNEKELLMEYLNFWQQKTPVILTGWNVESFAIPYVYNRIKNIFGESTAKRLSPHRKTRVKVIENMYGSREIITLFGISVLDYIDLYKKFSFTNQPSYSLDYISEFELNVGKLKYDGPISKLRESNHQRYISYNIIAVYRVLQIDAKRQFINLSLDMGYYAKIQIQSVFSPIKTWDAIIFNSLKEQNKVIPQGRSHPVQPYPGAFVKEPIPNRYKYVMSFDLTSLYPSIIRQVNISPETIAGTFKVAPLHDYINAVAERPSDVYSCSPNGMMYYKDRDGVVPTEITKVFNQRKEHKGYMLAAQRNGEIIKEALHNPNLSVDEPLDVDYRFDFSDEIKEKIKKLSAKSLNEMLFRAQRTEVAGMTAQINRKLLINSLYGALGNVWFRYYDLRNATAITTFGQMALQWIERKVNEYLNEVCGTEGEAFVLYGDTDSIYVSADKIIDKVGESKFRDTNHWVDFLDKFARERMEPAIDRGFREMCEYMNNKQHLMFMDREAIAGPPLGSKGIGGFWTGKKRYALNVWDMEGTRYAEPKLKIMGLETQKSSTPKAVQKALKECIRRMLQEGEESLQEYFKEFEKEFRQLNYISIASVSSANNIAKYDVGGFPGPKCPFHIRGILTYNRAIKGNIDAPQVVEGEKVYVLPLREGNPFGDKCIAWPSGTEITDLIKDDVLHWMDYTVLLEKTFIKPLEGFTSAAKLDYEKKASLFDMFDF
Assay: X-ray crystallography

B1: P/T cocrystallization duplex (18-mer template/13-mer ddC primer) (dsDNA)
DNA 1: TCAGGTAAGCAGTCCGCG
DNA 2: GCGGACTGCTTAC
modifications: primer 3' terminus dideoxy (ddC)
binding result: binds
